# In article PMC7794297:
# Substrate: OC[C@H]1O[C@@H](O)[C@H](O)[C@@H](O)[C@@H]1O
# Experiment: GOx activity assay, glucose oxidase-horseradish peroxidase coupled system with o-dianisidine
# Assay type: biochemical, Aspergillus niger
# Conditions: other: control, glucose conversion; 37.0 °C
protein,measurement,value
"glucose oxidase (GOx) (Aspergillus niger) (protein, purchased Sigma Aldrich) LPHYIRSNGIEASLLTDPKDVSGRTVDYIIAGGGLTGLTTAARLTENPNISVLVIESGSYESDRGPIIEDLNAYGDIFGSSVDHAYETVELATNNQTALIRSGNGLGGSTLVNGGTWTRPHKAQVDSWETVFGNEGWNWDNVAAYSLQAERARAPNAKQIAAGHYFNASCHGVNGTVHAGPRDTGDDYSPIVKALMSAVEDRGVPTKKDFGCGDPHGVSMFPNTLHEDQVRSDAAREWLLPNYQRPNLQVLTGQYVGKVLLSQNGTTPRAVGVEFGTHKGNTHNVYAKHEVLLAAGSAVSPTILEYSGIGMKSILEPLGIDTVVDLPVGLNLQDQTTATVRSRITSAGAGQGQAAWFATFNETFGDYSEKAHELLNTKLEQWAEEAVARGGFHNTTALLIQYENYRDWIVNHNVAYSELFLDTAGVASFDVWDLLPFTRGYVHILDKDPYLHHFAYDPQYFLNELDLLGQAAATQLARNISNSGAMQTYFAGETIPGDNLAYDADLSAWTEYIPYHFRPNYHGVGTCSMMPKEMGGVVDNAARVYGVQGLRVIDGSIPPTQMSSHVMTVFYAMALKISDAILEDYASMQ",Km,15 ± 2 mM
same,kcat,0.00233 ± 0.00017 s⁻¹
